Data published in paper PMC3391209, “A Lon-Like Protease with No ATP-Powered Unfolding Activity” (PLoS ONE, 2012).

Key:
[1] = biological target: T1, EcLonA (Escherichia coli, UniProt P0A9M0); assay: […]-NMR of phosphate release; colorimetric ATPase assay; type: biochemical; settings: 37 °C, 50 mM Tris-HCl pH 8.0, 10 mM MgCl2, 10 mM ATP (NMR); positive control
T1 construct: gene lon; recombinant, expressed and purified as described previously

[2] = biological target: T2, MtaLonC (Meiothermus taiwanensis, UniProt C9DRU9); assay: isothermal titration calorimetry, one-site fit; type: binding
T2 construct: gene lon_2; full-length, 719 residues, C-terminal His tag (pET21a), expressed in E. coli BL21(DE3); homohexamer, monomer 79 kDa
T2 sequence (C9DRU9 1-719): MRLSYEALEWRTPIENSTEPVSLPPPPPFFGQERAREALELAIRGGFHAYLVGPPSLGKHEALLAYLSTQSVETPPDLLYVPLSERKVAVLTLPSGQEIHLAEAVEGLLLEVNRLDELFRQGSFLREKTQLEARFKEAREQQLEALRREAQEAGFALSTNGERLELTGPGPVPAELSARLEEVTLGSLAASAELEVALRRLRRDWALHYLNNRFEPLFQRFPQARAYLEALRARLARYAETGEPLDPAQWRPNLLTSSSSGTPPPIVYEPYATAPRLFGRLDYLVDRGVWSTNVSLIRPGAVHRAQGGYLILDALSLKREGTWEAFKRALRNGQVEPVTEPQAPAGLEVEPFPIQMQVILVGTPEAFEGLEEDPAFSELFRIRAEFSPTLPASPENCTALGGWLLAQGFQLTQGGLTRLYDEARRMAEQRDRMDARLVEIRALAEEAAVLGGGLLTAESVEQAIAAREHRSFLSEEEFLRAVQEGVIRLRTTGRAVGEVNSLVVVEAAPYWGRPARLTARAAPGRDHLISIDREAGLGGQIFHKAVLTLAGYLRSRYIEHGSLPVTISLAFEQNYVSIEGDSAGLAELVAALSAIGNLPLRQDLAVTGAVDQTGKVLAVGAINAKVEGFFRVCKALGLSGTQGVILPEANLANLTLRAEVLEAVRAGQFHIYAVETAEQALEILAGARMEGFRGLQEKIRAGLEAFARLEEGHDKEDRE

[3] = biological target: Lon-like protease MtaLonC from Meiothermus taiwanensis WR-220 (Meiothermus taiwanensis WR-220); assay: SEC; Superose 6; 1 mg/mL, pH 5-8; hexamer formation not dependent on Mg2+ or ATP; aggregates in the void volume when concentrated
[4] = biological target: Lon-like protease MtaLonC from Meiothermus taiwanensis WR-220 (Meiothermus taiwanensis WR-220); assay: AUC; sedimentation equilibrium (4,000-6,000 r.p.m.) and sedimentation velocity (20,000 rpm), 20°C, 20 mM sodium citrate pH 5.5, 100 mM NaCl, 1 mM DTT, 7.8 µM protein
[5] = biological target: Lon-like protease MtaLonC from Meiothermus taiwanensis WR-220 (Meiothermus taiwanensis WR-220); assay: negative-stain electron microscopy; about 50 µg/ml MtaLonC, 2% uranyl acetate, class averages; hexamer and void-volume fractions from Superose 6

T1 sequence (P0A9M0 2-784): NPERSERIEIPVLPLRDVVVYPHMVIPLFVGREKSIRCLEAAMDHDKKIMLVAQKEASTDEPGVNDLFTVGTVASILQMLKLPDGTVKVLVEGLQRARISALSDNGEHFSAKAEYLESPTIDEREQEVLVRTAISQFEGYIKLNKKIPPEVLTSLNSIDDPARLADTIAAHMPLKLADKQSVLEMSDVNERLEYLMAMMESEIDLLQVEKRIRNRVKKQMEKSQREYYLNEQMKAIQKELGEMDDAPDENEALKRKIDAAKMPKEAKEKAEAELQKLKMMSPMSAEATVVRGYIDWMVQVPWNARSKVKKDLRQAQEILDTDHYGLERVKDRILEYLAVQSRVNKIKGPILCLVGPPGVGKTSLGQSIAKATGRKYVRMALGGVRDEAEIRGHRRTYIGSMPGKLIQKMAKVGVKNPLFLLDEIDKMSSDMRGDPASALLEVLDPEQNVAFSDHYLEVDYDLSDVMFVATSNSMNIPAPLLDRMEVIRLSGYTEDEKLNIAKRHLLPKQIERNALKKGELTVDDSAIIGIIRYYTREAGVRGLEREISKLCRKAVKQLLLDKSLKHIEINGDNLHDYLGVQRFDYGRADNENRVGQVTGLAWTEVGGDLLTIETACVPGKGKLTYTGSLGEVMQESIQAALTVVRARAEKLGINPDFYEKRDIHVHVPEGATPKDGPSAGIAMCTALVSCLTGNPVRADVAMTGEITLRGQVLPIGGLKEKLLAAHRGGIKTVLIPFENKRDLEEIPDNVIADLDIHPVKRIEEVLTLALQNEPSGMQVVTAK

Nc1ncnc2c1ncn2[C@@H]1O[C@H](COP(=O)(O)OP(=O)(O)OP(=O)(O)O)[C@@H](O)[C@H]1O [ATP]
31P-NMR of phosphate release; colorimetric ATPase assay [1]: incubation of an excess amount of ATP with EcLonA resulted in hydrolysis of ATP

Nc1ncnc2c1ncn2[C@@H]1O[C@H](CO[P@](=O)(O)O[P@](=O)(O)O[P@@](=O)(O)S)[C@@H](O)[C@H]1O [ATPγS]
Kd [2]: 7.8 µM

Lon-like protease MtaLonC from Meiothermus taiwanensis WR-220 (enzyme)
stoichiometry N [3]: 6
stoichiometry N [4]: 6
stoichiometry N [5]: 6
